The Immune Epitope Database (IEDB)

Columns and labels:
HLA-B*07:02 = experiment: IEDB peptide-MHC binding, purified MHC/competitive/radioactivity; filed as Kd, often an IC50 or EC50 that approximates it; ≥ and ≤ were set here for values at or beyond the usual limits of such assays
HLA-B*51:01 = experiment: as above
HLA-B*35:01 = experiment: as above
HLA-B*53:01 = experiment: as above
HLA-B*54:01 = experiment: as above
HLA-B*15:01 [1] = experiment: as above
HLA-B*46:01 = experiment: IEDB peptide-MHC binding, purified MHC/direct/fluorescence; filed as Kd, often an IC50 or EC50 that approximates it; ≥ and ≤ were set here for values at or beyond the usual limits of such assays; conditions: source organism: Mammarenavirus lassaense
HLA-B*15:01 [2] = experiment: as above; conditions: source organism: Mammarenavirus lassaense
[3] = source organism: SARS coronavirus Tor2
[4] = source organism: Vaccinia virus WR
[5] = source organism: Triticum aestivum

In the case of LPPKSSIDAF, the Kd (HLA-B*07:02; [3]) is reported as 3090 nM, the Kd (HLA-B*51:01; [3]) is reported as 3490 nM and the Kd (HLA-B*35:01; [3]) is reported as 1110 nM. For the same sequence, the Kd (HLA-B*53:01; [3]) was 11100 nM and the Kd (HLA-B*54:01; [3]) was at least 31900 nM.

Work on LSCSVCNSL yielded a Kd (HLA-B*15:01 [1]; [4]) of 386 nM.

LVHQVFGTAY gave a Kd (HLA-B*15:01 [1]; source organism: Dengue virus 1 Brazil/97-11/1997) of 7.15 nM.

With LYQPSSGCY the Kd (HLA-B*46:01) was at least 20000 nM and the Kd (HLA-B*15:01 [2]) was 1070 nM.

MSRGYFEHM was tested, and the Kd (HLA-B*15:01 [1]; [4]) was 30.8 nM.

For NIAFLDESF, the Kd (HLA-B*15:01 [1]; [4]) was 822 nM.

NPIINTHSF was tested, and the Kd (HLA-B*07:02; [4]) was 3 nM, the Kd (HLA-B*51:01; [4]) was at least 27100 nM and the Kd (HLA-B*35:01; [4]) was 0.188 nM. For the same sequence, the Kd (HLA-B*53:01; [4]) was 0.178 nM and the Kd (HLA-B*54:01; [4]) was 9620 nM.

NPSILPSLI gave a Kd (HLA-B*07:02; [4]) of 287 nM, a Kd (HLA-B*51:01; [4]) of 304 nM and a Kd (HLA-B*35:01; [4]) of 1120 nM. The Kd (HLA-B*53:01; [4]) was 5.55 nM and the Kd (HLA-B*54:01; [4]) was at least 73400 nM.

Sequence QPLQQYPL has a Kd (HLA-B*07:02; [5]) of 8450 nM, a Kd (HLA-B*51:01; [5]) of 1450 nM and a Kd (HLA-B*35:01; [5]) of at least 36100 nM. It also gave a Kd (HLA-B*53:01; [5]) of at least 22400 nM and a Kd (HLA-B*54:01; [5]) of at least 87700 nM.

QSKSSLLHA gave a Kd (HLA-B*15:01 [1]; [4]) of 405 nM.

RMNVFNGHL showed a Kd (HLA-B*15:01 [1]; source organism: Vaccinia virus Copenhagen) of 28 nM.

For RPDTRYVLM, the Kd (HLA-B*07:02; [3]) was 15.4 nM, the Kd (HLA-B*51:01; [3]) was 908 nM and the Kd (HLA-B*35:01; [3]) was 1990 nM. It also gave a Kd (HLA-B*53:01; [3]) of 4850 nM and a Kd (HLA-B*54:01; [3]) of 1580 nM.

With RPKQRRPQGL the Kd (HLA-B*07:02; [3]) was 308 nM, the Kd (HLA-B*51:01; [3]) was at least 69600 nM and the Kd (HLA-B*35:01; [3]) was at least 69900 nM. The Kd (HLA-B*53:01; [3]) was at least 69900 nM and the Kd (HLA-B*54:01; [3]) was at least 69900 nM.
